B1: recombinant H7-235 IgG1 (rH7-235 IgG1) (antibody, V domains shown)
VH: QVQLVESGGGVVQPGESLRLSCAASGFAFRTYGMHWVRQAPGKGLEWVGVIWYDGSNKYYGDSVKGRFTISRDNSQNTLYLQMNSLRAEDTAVYYCARNGERWRVEDYYYGMDVWGQGTLVTVSS
VL: EIVMTQSPLSLPVTPGEPASISCRSSQSLLHSNAHNYLDWYLQKPGQSPQLLIYLGSNRASGVPDRFSGSGSGTDFTLKISRVEAEDVGIYYCMQALQTPITFGQGTRLEIK
notes: IgG1; also called rH7-235 mAb; mAb H7-235; copies: 2 + 2
B2: rH7-235 IgG1 (recombinant human monoclonal antibody H7-235) (antibody, V domains shown)
VH: QVQLVESGGGVVQPGESLRLSCAASGFAFRTYGMHWVRQAPGKGLEWVGVIWYDGSNKYYGDSVKGRFTISRDNSQNTLYLQMNSLRAEDTAVYYCARNGERWRVEDYYYGMDVWGQGTLVTVSS
VL: EIVMTQSPLSLPVTPGEPASISCRSSQSLLHSNAHNYLDWYLQKPGQSPQLLIYLGSNRASGVPDRFSGSGSGTDFTLKISRVEAEDVGIYYCMQALQTPITFGQGTRLEIK
notes: also called mAb H7-235; source: Expi293F, transient transfection, purified (MabSelect Sure)
B3: rH7-235rev IgG1 (germline revertant form of rH7-235 IgG) (antibody, V domains shown)
VH: QVQLVESGGGVVQPGRSLRLSCAASGFTFSSYGMHWVRQAPGKGLEWVAVIWYDGSNKYYADSVKGRFTISRDNSKNTLYLQMNSLRAEDTAVYYCARNGERWRVEDYYYGMDVWGQGTLVTVSS
VL: not shown

Legend:
[1] = target: recombinant soluble trimeric H3 HA of A/Hong Kong/1/1968 H3N2 (HK68 H3) (Influenza A virus A/Hong Kong/1/1968 …, UniProt Q91MA7); experiment: ELISA; settings: both partners purified
[2] = target: recombinant soluble trimeric H3 HA of A/Hong Kong/1/1968 H3N2 (Influenza A virus A/Hong Kong/1/1968 …, UniProt Q91MA7); experiment: ELISA; settings: both partners purified
recombinant soluble trimeric H3 HA of A/Hong Kong/1/1968 H3N2, sequence (Q91MA7 17-530): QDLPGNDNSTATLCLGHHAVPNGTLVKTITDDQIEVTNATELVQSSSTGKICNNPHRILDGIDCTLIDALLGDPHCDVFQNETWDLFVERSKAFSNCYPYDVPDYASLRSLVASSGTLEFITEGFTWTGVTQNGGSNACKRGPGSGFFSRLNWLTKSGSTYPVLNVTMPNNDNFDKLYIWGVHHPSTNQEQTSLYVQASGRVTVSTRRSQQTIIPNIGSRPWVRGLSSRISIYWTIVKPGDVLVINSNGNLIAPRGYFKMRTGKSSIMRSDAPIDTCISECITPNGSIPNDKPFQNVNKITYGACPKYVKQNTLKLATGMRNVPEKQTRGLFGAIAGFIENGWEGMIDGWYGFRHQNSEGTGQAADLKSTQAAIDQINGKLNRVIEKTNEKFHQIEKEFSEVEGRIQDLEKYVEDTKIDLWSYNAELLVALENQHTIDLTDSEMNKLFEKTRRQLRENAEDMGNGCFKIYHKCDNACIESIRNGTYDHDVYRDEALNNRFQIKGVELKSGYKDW

recombinant soluble trimeric H3 HA of A/Hong Kong/1/1968 H3N2 (HK68 H3), sequence (Q91MA7 17-530): as above

Binder | binding result [1] | binding result [2]
B1 | no binding | 
B2 |  | no binding (tested: >10,000 ng/mL)
B3 |  | no binding (tested: >10,000 ng/mL)

Source: publication PMC12288907 (JCI Insight, 2025)
